Patent US20170101480A1

Target: ErbB3 (human) (UniProt P21860)
Assay: cell-based or functional assay

B1: Seribantumab (antibody, INN chains, looked up, V domains shown)
VH: EVQLLESGGGLVQPGGSLRLSCAASGFTFSHYVMAWVRQAPGKGLEWVSSISSSGGWTLYADSVKGRFTISRDNSKNTLYLQMNSLRAEDTAVYYCTRGLKMATIFDYWGQGTLVTVSS
VL: QSALTQPASVSGSPGQSITISCTGTSSDVGSYNVVSWYQQHPGKAPKLIIYEVSQRPSGVSNRFSGSKSGNTASLTISGLQTEDEADYYCCSYAGSSIFVIFGGGTKVTVLG
- inhibition of HRG-induced cell growth (CTG assay), OVCAR8-GFP cells: 49%
- inhibition of HRG-induced cell growth (CTG assay), OVCAR-8-JMaCYT1 cells (ErbB4 overexpressing): < 20%
- inhibition of HRG-induced cell growth (CTG assay), OVCAR-8-JMaCYT2 cells (ErbB4 overexpressing): < 20%
- inhibition of HRG-induced cell growth (CTG assay), OVCAR-8 high ErbB4 expression clone #5: 8%
- inhibition of HRG-induced cell growth (CTG assay), OVCAR-8 low ErbB4 expression clone #4: 45%
- inhibition of HRG-induced cell growth (CTG assay), OVCAR-8 medium ErbB4 expression clone #9: 25%
- inhibition of HRG-induced cell proliferation (CTG assay), OVCAR-8 GFP-expressing control cells, 1.25 uM seribantumab: 40.8%
- inhibition of HRG-induced cell proliferation (CTG assay), OVCAR-8 parental cells, 1.25 uM seribantumab: 53.7%
- inhibition of HRG-stimulated cell proliferation (CTG assay), A549 cells, 1.25 uM seribantumab, 10 nM HRG: 70%
- inhibition of HRG-stimulated cell proliferation (CTG assay), OVCAR-8 cells, 1.25 uM seribantumab, 10 nM HRG: 41%
